The text below walks through data of publication doi:10.1101/2021.02.07.430159.

The target of this experiment is GST-MLLE protein (MLLE domain of PABPC1). Put plainly: SPR. In general terms: Surface plasmon resonance follows binding to a sensor surface in real time, without labels.

In general, Kd refers to the constant that tells how readily two partners part at equilibrium. The low end stands for tighter binding, the high end for weaker binding. In turn, SNLNPNAPEFHPGVPWKGLQ [super-PAM2 peptide] returned a Kd of 20 nM.
